Results on two substances are retold here after article doi:10.1101/2020.08.17.254201.

For assay [1], the target named is SgEsaA_(332-725) (Streptococcus gallolyticus ATCC 43143). As to the kind of experiment: SEC-MALS. (Size exclusion chromatography separates by hydrodynamic size, large species first.)
Assay [2] has as its target SiEsaA_(328-685), fragment of Streptococcus intermedius B196 EsaA (Streptococcus intermedius B196). As to the kind of experiment: SEC-MALS.

For SgEsaA_(332-725) (domain or fragment), the stoichiometry N in assay [1] is 2. The substance “SiEsaA_(328-685), fragment of Streptococcus intermedius B196 EsaA (domain or fragment)” yielded a stoichiometry N in assay [2] of 2.

Broadly, the stoichiometry N is a count of units in the complex or per binding partner.
